17 sequences from the DeepSol protein solubility set can be followed below.

This data set is described as follows: soluble on expression in E. coli; label from the status in PepcDB or PDB records.
As to “MSSSANSIKVVARFRPQNRVEIESGGQPIVTFQGPDTCTVDSKEAQGSFTFDRVFDMSCKQSDIFDFSIKPTVDDILNGYNGTVFAYGQTGAGKSYTMMGTSIDDPDGRGVIPRIVEQIFTSILSSAANIEYTVRVSYMEIYMERIRDLLAPQNDNLPVHEEKNRGVYVKGLLEIYVSSVQEVYEVMRRGGNARAVAATNMNQESSRSHSIFVITITQKNVETGSAKSGQLFLVDLAGSEKVGKTGASGQTLEEAKKINKSLSALGMVINALTDGKSSHVPYRDSKLTRILQESLGGNSRTTLIINCSPSSYNDAETLSTLRFGMRAKSIKNKAKVNAELSPAELKQMLAKAKTQ”, the “soluble on expression in E. coli” value was “soluble”.

Regarding “MSLEAIHRSTRIEFSKSSLAYNVQYTKQVSGAKTLWLAVKSNAYGHGLLQVSKIARECGVDGLAVSVLDEGIAIRQAGIDDFILILGPIDVKYAPIASKYHFLTTVSSLDWLKSADKILGKEKLSVNLAVDTGMNRIGVRSKKDLKDEIEFLQEHSDHFSYDGIFTHFASSDNPDDHYFQRQKNRWYELIDGLIMPRYVHVMNSGAAMYHSKELPGCNSIARVGTVVYGVEPSEGVLGPIDKLKPVFELKSALTFVKKIPAGEGISYGSKFVTSRDTWIGTLPIGYGDGWLAEYQDFQLLIDGQKCRQVGQIAMDQMMVALPHEYPIGTEVTLIGKSGKYENTLYDLHKHSGVPPWKITVAFSDRLKRMVVDEGHHHHHH”, the “soluble on expression in E. coli” value is recorded as “soluble”.

Turning to “MSLEAKNTFDLSGGYVLPGFIDSHAHLLSTGLEQTRLNLFEYEAKIEAIDAIRRYAEKHDKVVAYRWDESRWRDDPTYITASDLDGIVKPVVAFRRDGHMAVANDQAMRSIGQHRPDGIFREEDMQMLDPLVKPGEEEYVQALQTAIGISASLGITGVRDIVDRATYDAYRRIKSNVRIFKVIYAEDLFAGFGSDPSDWGVKTFLDGSLGARTAAHEGWDTKNLKMSEQQFERFCEGTWSRNLPVAVHAIGDLAVRVAAETMHRHAGRQRNSIEHFELVEDGVLDIIDANTIVSAQPNFLEWAGHGGMYQDRLGESWLYRNNPYRDILDKGLKLAFGSDSMPLGPMYGIHYAVNSEFSQQRITFDEAVRSYSEAGSYLIGAENWIGRIETGYSADFAVFNERNIEDRRRLKEAKPLMTIVHGNTIYDASRVDEGHHHHHH”, the “soluble on expression in E. coli” value is recorded as “not soluble”.

Take “MGKYFGTDGVRGEANVELTPELAFKLGRFGGYVLSQHETERPKVFVARDTRISGEMLESALIAGLLSVGIEVYKLGVLATPGVSYLVRTEKASAGVMISASHNPALDNGIKFFGNDGFKLADDQELEIEALLDAPEDTLPRPSAEGLGTLVDYPEGLRKYEKFLVTTGTDLSGMTVALDTANGAASVSARDVFLDLNAEIAVIGEKPNGLNINDGVGSTRPEQLQELVKETGADLGLAFDGDSDRLIAVDETGEIVDGDRIMFIIGKYLSEKGLLAHNTIVTTVMSNLGFHKALDKQGINKAITAVGDRYVVEEMRSSGYNLGGEQSGHVIIMDYNTTGDGQLTAIQLAKVMKETGKSLSELAAEVTIYPQKLVNIRVENSMKERAMEVPAIANIIAKMEDEMAGNGRILVRPSGTEPLLRVMAEAPTDAEVDYYVDTIADVVRTEIGCDN”: the “soluble on expression in E. coli” value was “not soluble”.

For “MGSDKIHHHHHHMSVLIECRDLSHSYGEKTVLHDLSFTVRQGGVFGLLGKNGAGKSTTINILMGFLRPGSGSCRVLGEPSHALSPHARRRIGLLHEGFIQYDFMTIAELERYYAAFYPLWDRSVFFDLTDRLQVPYSRRISCLSCGQRSQVVLGLIMAQQPQLMILDDYSMGLDVGYRRLFIDFLREYVAKRGTTVLLTSHVVQELDKIVDNMIVLREGRVAVSGSKKEFMDSFRCYSFARSPASDALHADTVLENVEHMGSVTTVYAFADGEPVARHLRDRGVDPQNMTPVPMDFEDAFVGLTGKY”, the “soluble on expression in E. coli” value is recorded as “not soluble”.

On to “MEQVFAPWRIEWVERDDTTDDDVDCVFCAFPGREHARQHLVVARTDHAAVMLNNYPYNPGHCMVIPDVHTGDYGDLDADTLLDHARLKQATLDALDAALGPDAFNTGLNLGGGAAGGSIGDHLHTHVVPRWNGDTNFMPVISDTKVIVEALDDTYDRLHDAFLARPDATEAPTGAVFVDFNLEHHHHHH”, for which the “soluble on expression in E. coli” value was “not soluble”.

For “MAKRLSKQQLAKAIANTLETPPQPKAGRRRNRRRQRSAVQQLQPTQAGISMAASAQGAMVRIRNPAVSSSRGGITVLTHSELSAEIGVTDSIVVSSELVMPYTVGTWLRGVAANWSKYSWLSVRYTYIPSCPSSTAGSIHMGFQYDMADTVPVSVNQLSNLRGYVSGQVWSGSAGLCFINGTRCSDTSTAISTTLDVSKLGKKWYPYKTSADYATAVGVDVNIATPLVPARLVIALLDGSSSTAVAAGRIYCTYTIQMIEPTASALNN”, the “soluble on expression in E. coli” value was “soluble”.

With “NQVLSGVSFQLMPGEVHALMGENGAGKSTLMNILTGLHKADKGQISINGNETYFSNPKEAEQHGIAFIHQELNIWPEMTVLENLFIGKEISSKLGVLQTRKMKALAKEQFDKLSVSLSLDQEAGECSVGQQQMIEIAKALMTNAEVIIMDEPTAALTEREISKLFEVITALKKNGVSIVYISHRMEEIFAICDRITIMRDGKTVDTTNISETDFDEVVKKMVGRELTERYPKRTPSLGDKVFEVKNASVKGSFEDVSFYVRSGEIVGVSGLMGAGRTEMMRALFGVDRLDTGEIWIAGKKTAIKNPQEAVKKGLGFITENRKDEGLLLDTSIRENIALPNLSSFSPKGLIDHKREAEFVDLLIKRLTIKTASPETHARHLSGGNQQKVVIAKWIGIGPKVLILDEPTRGVDVGAKREIYTLMNELTERGVAIIMVSSELPEILGMSDRIIVVHEGRISGEIHAREATQERIMTLATGGR”, the “soluble on expression in E. coli” value is “not soluble”.

Turning to “MSLGMHGAAHIVWDWNGTLFHDNAAIIGATNAAFAELGLEPITLERYRALYCVPVPKFYERLIGRLPTDAEWEIMDEIFHRYYAEHRVGCGLTEGAAELLVEWQSAGHSQSILSMYVHDELVPLVRGFGIEPHFIRVDGRTGPSGGSKAEHMVRHIGALAGVAGVDPARTVVIGDAADDAVAALHVGAQAVLYTGGSHSRASLEGVGVPVVDTLAEAVEEAGRLAAEGHHHHHH”, the “soluble on expression in E. coli” value is listed as “soluble”.

Take “AIAKILLVFDFDNTIIDDNSDTWIVQCAPNKKLPIELRDSYRKGFWTEFMGRVFKYLGDKGVREHEMKRAVTSLPFTPGMVELFNFIRKNKDKFDCIIISDSNSVFIDWVLEAASFHDIFDKVFTNPAAFNSNGHLTVENYHTHSCNRCPKNLCKKVVLIEFVDKQLQQGVNYTQIVYIGDGGNDVCPVTFLKNDDVAMPRKGYTLQKTLSRMSQNLEPMEYSVVVWSSGVDIISHLQFLIKD”: the “soluble on expression in E. coli” value is “soluble”.

As to “MAEIGIFVGTMYGNSLLVAEEAEAILTAQGHKATVFEDPELSDWLPYQDKYVLVVTSTTGQGDLPDSIVPLFQGIKDSLGFQPNLRYGVIALGDSSYVNFCNGGKQFDALLQEQSAQRVGEMLLIDASENPEPETESNPWVEQWGTLLS”, the “soluble on expression in E. coli” value is “soluble”.

Consider “MEESKTPHVAIIPSPGMGHLIPLVEFAKRLVHLHGLTVTFVIAGEGPPSKAQRTVLDSLPSSISSVFLPPVDLTDLSSSTRIESRISLTVTRSNPELRKVFDSFVEGGRLPTALVVDLFGTDAFDVAVEFHVPPYIFYPTTANVLSFFLHLPKLDETVSCEFRELTEPLMLPGCVPVAGKDFLDPAQDRKDDAYKWLLHNTKRYKEAEGILVNTFFELEPNAIKALQEPGLDKPPVYPVGPLVNIGKQEAKQTEESECLKWLDNQPLGSVLYVSFGSGGTLTCEQLNELALGLADSEQRFLWVIRSPSGIANSSYFDSHSQTDPLTFLPPGFLERTKKRGFVIPFWAPQAQVLAHPSTGGFLTHCGWNSTLESVVSGIPLIAWPLYAEQKMNAVLLSEDIRAALRPRAGDDGLVRREEVARVVKGLMEGEEGKGVRNKMKELKEAACRVLKDDGTSTKALSLVALKWKAHKKELEQNGNH”, for which the “soluble on expression in E. coli” value is on record as “soluble”.

“MTRGPIFLNVGISYGLPRTKLPAAVSFRKWVAATLQGRIRKADLAIRIVDEKEGRALNYHYRNKDYATNVLSFPAQLPEPLPKALKIPLLGDIVMCAPVIAREAAEQGKSLSAHYAHLTVHGTLHLLGWNHEDHQEADAMEQLEREILANLGISDPYLEEY”: the “soluble on expression in E. coli” value is on record as “soluble”.

Turning to “GPGSMELTEEERGLLILRLHQVLRPFLLRRTKADVDSTLRMTFHHMWCPLSAMQQRLLCMLREQRRIPTVLGMAGGYSGKSSSSSEADNEEEEEAAGAADAAAHTSTFPAAEIGADESTGCTPYIAVAALAADALHGKASPDLDPLQARNETAMPRDRLAELVWRHLPALASTESSDILRCAVQQDRALGLTSAGVSESSARLVCNHAFLLPFFSQVLHRHGLDEVTQEGCNDADAAAVATSESSVVGAEAAERCGAAGLTLACSGKFLVLHLLLSRLYVAQRKVVLFTHWLNCVDLLVDYLYSRGWADHAEVLTGGSSEAERLTSVRRFREDPGCLFFLLSIKAGGCGINLQAAHMVVLVDRDYTVTNEDQALARVYRIGQRYTVRAVYLATTDSSEQHVAQRATAKNKPRQAIINDGVYQVTTASEGERVGETGEAVTAAKFADPPSHAYNELDTSELWRSISGATTPPSPTTAMQEARRPECDGTASGAARPAPFSLPPPEAFWVALSCLVESMDELVLTEEDRAAATVRSAEEERRSMGCTPANSAAARLLATRPPRSTAELHLRLQGGRDEMFSGPQRERGVAPSLSGTAASDAYLGVWKQSAEAPTTGDRTRSHTPSEPQAAALAAAPQPTPRSAPVTDPLQNSALFWLEYSHLLRIAGRGPYLLSDSLRVAVTNDTRKNDPEERVRRRQRRDRRVAKRLRLASVDVPDDFREACWAKEGIDDDAEVAERYLRFLDANAGKRRQRRRKDAG”, the “soluble on expression in E. coli” value is “not soluble”.

As for “MKTVDSELFDSGPFKKNFAFGNADHSTASPFEISTTPIEVNESRAHKTIEISNRARLESQNDGCLSPSSLKSVLDEIQTEPRCKSPQHIDLHTFRDAVDVNYQRMAITGEELSGVPLEDLKTASGHLIEALHLRSKYMERIGNQFPSTTRNFLSGHYPANLPKHRVKNTETTVQTSFNPPDPPKDHWGKNDPLPKYEKIYHLRRNRGVTEICNDDGSIDQQFKNVNVTKEEFLNDTEKLTAMIVDGPLKSFCFRRLSYLENKFQLHVLLNELRELHEQKGVSHRDFYNIRKVDTHIHAASSMNQKHLLRFIKKKIKTEADTVVLNNNGTKVTMKEVFKKMGIDAYDLSVDMLDVHADRNTFHRFDKFNTKYNPVGESTLREIFIKTDNYVGGKYFADLLKEVLSDLEDSKYQHAEPRLSIYGRSKNEWDNLAKWALTHDVWSPNARWLVQIPRLYDVYRAKNMVKNFDDMLDNLFTPLFEVTNDPSSHPELHLFLQQISGIDSVDDESKHEFVNFDRSTPCPPEYTDLENPPYNYYLFYMYRNICALNAFRRARGLNTFALRPHCGEAGHVSHLLTGYLTSESIAHGILLRKVPVLQYLYYLTQIGIAMSPLSNNSLFISYQRNPLPEYLQKGLNVSLSTDDPLQFHYTKEALMEEFSIAAQVWKLSSCDMCELARNSVMQSGFEDKVKIHWLGPNYKEEGVLGNDIHRTNVPDIRVSFRHEALVDELYNLFRVQNTLKQ”, the “soluble on expression in E. coli” value is reported as “not soluble”.

As to “MADSDLPTKGRQRGVRAVELNVAARLENLALLRTLVGAIGTFEDLDFDAVADLRLAVDEVCTRLIRSALPDATLRLVVDPRKDEVVVEASAACDTHDVVAPGSFSWHVLTALADDVQTFHDGRQPDVAGSVFGITLTARRAASSR”, the “soluble on expression in E. coli” value is “not soluble”.

Take “MGSDKIHHHHHHLANTKELGPLRILISRLLKKAGELCFTASDLTISKEQAKLITRGAPRFPYHTPHNMLFWLDESQYVDKCIIQHGKYESASTNLVQQFVKEGQTVLDIGGNIGYYTVMFSKIVGRSGKVITFEPTAHYRSILEKNVQENQINNVLIRPEGLSDKAEKLTISIGSSTATLHAPEGQQIDSYEAIQLARLDDLVEQLDITKLDFIKIDVDGHEPSVLRGAQQTIKKFKPLILLEVSHLHYLEGNVFAWDFYDYLSSLNYYIYDEHEMCRITRRSDFLIRCANFDRSCNILLSPTLLNEH”: the “soluble on expression in E. coli” value is listed as “not soluble”.
